Results: patent publication US20160136272A1, “METHODS FOR RESTORING CORTICOSTEROID SENSITIVITY” (priority 2013, published 2016)

Legend:
[1] = system: PBMC; experiment: IP-10 production by donor PBMC in response to dsRNA and drug combinations (ELISA); type: cell-based, human; conditions: for IP-10 production in response to polyIC, antibody combined with methotrexate, dexamethasone or Humira / IP-10 production in response to polyAU, antibody combined with methotrexate, dexamethasone or Humira: antibody 50 μg/ml plus dose range of drug; for IP-10 production in response to polyIC, antibody combined with methotrexate, dexamethasone or Humira / IP-10 production in response to polyIC: 30 μg/ml poly(I:C); for IP-10 production in response to polyIC, antibody combined with methotrexate, dexamethasone or Humira: donors 1 and 2; for IP-10 production in response to polyAU, antibody combined with methotrexate, dexamethasone or Humira: 300 μg/ml IPH3102, donor 2; for IP-10 production in response to polyIC / IP-10 production in response to polyAU: antibody 50 μg/ml; for IP-10 production in response to polyIC: 24 h, human donors 1 and 2; for IP-10 production in response to polyAU: 300 μg/ml IPH3102, 24 h, human donor 2
Experimental: IP-10 production was assessed in human donors in response to polyAU (IPH3102), believed to be a specific agonist of TLR3, or plC, believed to be an agonist of TLR3 as well as other dsRNA receptors such as RIG-I and MDA-5. Fresh PBMC were isolated from whole blood of two independent donors. 1.5×10^6 (donor #1) and 3×10^6 (donor #2) PBMC per ml were incubated in flat-bottom 96W plates in the presence of 50 μg/ml 31C3 or 34A3 anti-human TLR3 mAbs and a dose range of methotrexate (300, 30 and 3 μg/ml), dexamethasone (200, 20, 2 μg/ml) or Humira® (100, 10, 1 μg/ml). Cells were incubated 1 hr at 37° C. prior addition of 300 μg/ml IPH3102 or 30 μg/ml poly(I:C). Cells were incubated for 24 additional hours at 37° C. Supernatant were then harvested to quantify IP10 production by ELISA. Cells were then recovered, stained with 7-AAD and analyzed by flow cytometry (FACS) to evaluate potential toxic effects of any drugs.

[2] = system: BEAS-2B cell line; experiment: IL-6 and IP-10 production by BEAS-2B cells in response to polyAU (ELISA); type: cell-based, human; conditions: 300 μg/ml IPH3102, 24 h
Experimental: IL-6 and IP-10 production was assessed in PBMC and virus-transformed lung epithelial BEAS-2B cell line in response to high molecular weight polyAU (IPH3102), a specific agonist of TLR3. Experiments with BEAS-2B were performed in Bronchial Epithelial Growth Medium (Lonza, #CC-3170). 2×10^4 BEAS-2B per well were plated in flat-bottom 96W plates in 100 μl culture medium and incubated over night at 37° C. A part of the cells was treated for 24-supplemental hours with 1000 UI/ml Intron A (Schering Plough, IFN-alpha 2b). Medium was discarded and 37B7 anti-human TLR3 Ab (0.01 and 0.1 μg/ml in the condition without Intron A and 0.01 and 0.3 μg/ml after treatment with Intron A) was added to the culture. Cells were incubated 30 min at 37° C. prior addition of Dexamethasone (1, 0.1, 0.01, 0.001 μg/ml in the condition […] and 10, 1, 0.1, 0.01 μg/ml after treatment with Intron A) or Budesonide (1, 0.1, 0.01, 0.001 μg/ml). Cells were incubated 30-additional min at 37° C. before addition of 300 μg/ml IPH3102. Cells were finally incubated for 24-additional hours and supernatants were harvested to quantify IL-6 and IP-10 production by ELISA.

Row | Molecule | IP-10 production in response to polyIC, antibody combined with methotrexate, dexamethasone or Humira [1] | IP-10 production in response to polyAU, antibody combined with methotrexate, dexamethasone or Humira [1] | IP-10 production in response to polyIC [1] | IP-10 production in response to polyAU [1] | IL-6 production by BEAS-2B, anti-TLR3 Ab combined with dexamethasone or budesonide ([2]; highest anti-TLR3 Ab dose) | block of BEAS-2B IL-6 production ([2]; highest concentration of anti-TLR3 Ab)
1 | 31C3: anti-human TLR3 mAb, cell deposited as 31C3.1, CNCM I-4186; VH/VL SEQ ID NO 75/76 (antibody, listed as Mus musculus, V domains shown) VH: MGWSWIFLFLLSGTAGVLSEVQLQQSGPELVKPGASVKISCKPSGYSFTAYYMHWVKQSHVKSLEWIGRINPYNGATSYNRNFKDKASLTVDKSSSTAYMELHSLTSEDSAVYYCARSGGNTYFDYWGQGTTLTVS VL: MSVPTQVLGLLLLWLTGARCDIQMTQSPASLSASVGETVTITCRASENIYSSLAWYQQKQGKSPQLLVYNAKTLAEGVPSRFSGSGSGTQFSSLKINSLQPEDFGTYYCQHHYGTPPTFGGGTKLEIK | reduce IP-10 further | reduce IP-10 further | substantially reduce IP-10 production | substantially reduce IP-10 production |  | 
2 | 34A3: anti-human TLR3 mAb; VH/VL SEQ ID NO 77/78 (antibody, listed as Mus musculus, V domains shown) VH: MEWRWIFLFLLSGTTGVHSEIQLQQSGPELVKPGASVKVSCKASGYVFTTYSIYWVKQSHGKSLEWIGYIDPYNGDTSYNQKFKGKATLTVDKSSSTAYMHLNSLTSEDSTVYYCAREGNYYGYFDYWGQGTTLTVS VL: MDFQVQIFSFLLMSASVIMSRGQIVLTQSPALMSASPGEKVTMTCSASSSVSYMFWYQQKPRSSPKPWIYLTSNLASGVPARFSGSGSGTSYSLTISSMEAEDAATYYCQQWTGNPPTFGGGTKLEIK | reduce IP-10 further | reduce IP-10 further | substantially reduce IP-10 production | substantially reduce IP-10 production |  | 
3 | 37B7: anti-human TLR3 Ab used in Example 11; VH/VL SEQ ID NO 71/72 (antibody, listed as Rattus norvegicus, V domains shown) VH: QVQLQQSGTELVKPGSSVKISCKASGYTFTSNYMHWIRQLPGNGLEWIGWIFPGDGDTNYNQKFNGKATLTADKSSSTAYMQLSSLTSEDYAVYFCARSDGDWYFDFWGPGTMVTVSS VL: DIQMTQSPGSLSASLGETVTIQCQASEDIYSGLAWYQQKPRKSPQLLISAASRLQDGVPSRFSGSGSGTQYSLKISSMQTEDEGVYFCQQGVKYPNTFGPGTKLELK |  |  |  |  | strong additive inhibition | ~50%
